Data reported in paper PMC11289257 (2024).

Columns and labels:
[1] = target: T1, African swine fever virus major capsid protein p72 (p72 capsomer, trimer) (African swine fever virus, UniProt P22776); assay: SPR
[2] = target: T1, African swine fever virus major capsid …; assay: SPR; remark: listed apart in the source

Row | Binder | Kd [1] | koff [2]
1 | porcine antibody C9 (class III) (Fab, V domains shown) VH: EVKLVESGGGLVQPGGSLRLSCVGSGFTFSSYEINWVRQAPGKGLEWLAVVSKIGDRTYYADSVRGRLTISRDNSQNTAYLQMNSLRTEDTARYYCVRAWCASTCLPGDIMDLWGPGVGVVVSS VL: QTVIQEPAMSVSPGGTVTLTCAWSSGSVTTSNYPSWFQQTPGQPPRQLIYNTNSRPTGVPRRFSGKISGNKAALTITGAQAEDEADYFCGLYKRSANNIFGGGTHLTVL | 1.49 µM | 0.00893 s⁻¹
2 | porcine antibody H3 (class III) (Fab, V domains shown) VH: QEKLVESGGGLVQPGGSLILSCVGSGFTFITYEINWVRQAPGKGLEWLAVVSKIGDRTYYAHSVRGRLTISRDNSQNTAYLQMNSLRTEDTARYYCVRAWCATTCLPGDIMDLWGPGVGVIV VL: TVIHEPAMSLSPGGTDTLTCAFSSGSITNNNYPSWFQQTPRQPPRLLIYNTNNRPTGVPSRFSGAISGNKAALTITGAQANDEADYFCTLYISIADVIFGGGTHLTVL | 0.998 µM | 0.00494 s⁻¹
3 | porcine antibody G6 (class IV) (Fab, V domains shown) VH: EVKLVESGGGLVQPGGSLTLSCVGSGYTFSSYPICWVRQAPGKGLEWLSCIDSSGSKMHLADSVLSRFTISKDNSQNTAYLQMNSLRTEDTARYYCARGRWCYGVICDMDLWGPGVEVVVSS VL: IVLTQTPLSLSVSPGEPASISCRSSQSLEEYGKNWLSWYQQKPGQSPRLLIYQATNRASWVPERFSGSGSGTDFTLKISRVEAEDAGVYYCQQYKEFPWTFGQGTKLELK | 1.92 µM | 0.00952 s⁻¹
4 | porcine antibody F11 (class II) (Fab, V domains shown) VH: EEKLVESGGGLVKPGGSLKLSCVGSGSTFSSDAVSWVRQAPGKGLEWLAGIDGDGYGVSTYYADSVKGRFTISRDNSQKTAYLQMNSLRTDDTARYYCAECPMVLLAKCSMEFWGPGVEVVVSS VL: QTVIQEPAMSVSLGGTVTLTCAFSSGSVTSSNYPGWFQQTPGQPPRLLIYQTNSRPTGVPSRFSGAISGNRAALTITGAQAEDEADYFCGLWKSGTDLPFGGGTHLTVL | 0.00913 µM | 0.000267 s⁻¹
5 | porcine antibody F5 (class II) (antibody, V domains shown) VH: EEKLVESGGGLVKPGGSLKLSCVGSGSTFSSDAVSWVRQAPGKGLEWLAGIDGDGYGVSTYYADSVKGRFTISRDNSQKTAYLQMNSLRTDDTARYYCAECPMVLLAKCSMEFWGPGVEVVVSS VL: QTVIQEPAMSVSPGGTVTLTCAFSSGSVTTRNYPSWFQQTPGQPPRLLIGRTNNRPTGVPSRFSGVISGNKAALVITGAQANDEATYFCSLYSPDTIIFGSGTHLTVL | 3.16 µM | 0.0134 s⁻¹
6 | porcine antibody B1 (class I) (Fab, V domains shown) VH: EVKLVESGGGLVQPGGSLKLSCVGSGSTFSSDAVSWVRQAPGKGLEWLAGIDGDGGGGSTYYADSVKGRFTISRDNSQKTAYLQMNSLRTDDTARYYCAECPMVLLAKCSMEFWGPGVEVVVS VL: DIVLTQTPRSLSVSPGEPASISCRSSQSLEEYGKNWLSWYQQKPGQSPRLLIYQATNRASWVPERFSGSGSGTDFTLKISRVEAEDVGVYYCFQDLQPPNGFGAGTKLELK | 0.00312 µM | 7.08e-05 s⁻¹
